Paper PMC8764033 (2022)
Where “and” joins values, the source holds several entries; their conditions need not be identical. Equal entries are not always repeated. Where no end group is shown, it is not given here. Cy5 = cyanine-5 fluorescent label

T1: WD40 domain of Cdh1 from Saccharomyces cerevisiae (aa 241–550), for anisotropy (S. cerevisiae, UniProt P53197 241-550)
T1 chain: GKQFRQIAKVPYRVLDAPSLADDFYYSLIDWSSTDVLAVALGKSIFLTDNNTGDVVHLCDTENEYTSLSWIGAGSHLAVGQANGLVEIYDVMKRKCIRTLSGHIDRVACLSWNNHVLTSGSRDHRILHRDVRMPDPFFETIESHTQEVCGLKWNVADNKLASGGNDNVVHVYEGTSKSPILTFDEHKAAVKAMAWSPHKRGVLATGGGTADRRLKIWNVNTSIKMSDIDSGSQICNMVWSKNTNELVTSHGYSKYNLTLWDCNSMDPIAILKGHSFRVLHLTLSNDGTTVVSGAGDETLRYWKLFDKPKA

T2: WD40 domain of human Cdc20 (aa 162–484), for anisotropy (human, UniProt Q12834 162-484)
T2 chain: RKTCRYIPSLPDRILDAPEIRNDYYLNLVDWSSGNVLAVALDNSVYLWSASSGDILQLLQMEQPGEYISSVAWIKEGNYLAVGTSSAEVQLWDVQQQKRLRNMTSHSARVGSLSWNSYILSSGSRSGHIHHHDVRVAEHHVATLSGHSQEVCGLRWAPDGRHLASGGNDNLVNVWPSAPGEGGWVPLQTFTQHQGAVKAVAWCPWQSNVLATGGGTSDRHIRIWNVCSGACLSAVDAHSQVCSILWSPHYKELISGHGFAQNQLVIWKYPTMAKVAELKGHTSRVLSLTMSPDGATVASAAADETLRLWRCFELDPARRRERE


Experiments:
[1] = target: T1, WD40 domain of Cdh1 from Saccharomyces …; test: FP
[2] = target: T1, WD40 domain of Cdh1 from Saccharomyces …; test: FP; + unlabeled Hsl1 D box peptide (100 uM)
[3] = target: T1, WD40 domain of Cdh1 from Saccharomyces …; test: FP; + unlabeled Hsl1 D box mutant peptide (100 uM)
[4] = target: T2, WD40 domain of human Cdc20 (aa …); test: FP
[5] = target: T1, WD40 domain of Cdh1 from Saccharomyces …; test: FP; + unlabeled Hsl1 KEN peptide (100 uM)
[6] = target: T1, WD40 domain of Cdh1 from Saccharomyces …; test: FP; + unlabeled Hsl1 KEN mutant peptide (100 uM)

Binder	Kd [1]	also measured
QDSKPRRALTDVPVNNNPLSQK-Cy5 [Cy5-labeled Clb5 D box peptide]	> 30.6 µM	
AQQQGRLPLAAKDNNRSKSFIK-Cy5 [Cy5-labeled ySecurin D box peptide]	> 30.6 µM	
GVSTNKENEGPEYPTKIEK-Cy5 [Cy5-labeled Hsl1 KEN peptide]	22 µM	Kd [2]: 3.4 µM; Kd [3]: 16 µM and 11 µM
EQKPKAAAASDITASFNKMNK-Cy5 [Cy5-labeled Hsl1 D box mutant peptide]	> 30.6 µM	
EQKPKRAALSDITNSFNKMNK-Cy5 [Cy5-labeled Hsl1 D box peptide]	2.9 µM	Kd [4]: 2.5 µM; Kd [5]: 1.1 µM and 1.2 µM; Kd [6]: 2.9 µM
